{"source": "patent US10858688", "test_in_all_cases": "single-molecule speckle (SiMS) TIRF imaging of EGFP-fused probe (cell lysate) on fixed, permeabilized XTC cells; exponential fit of speckle lifetimes", "key": {"[1]": {"molecular_target": "microtubule in fixed and permeabilized Xenopus laevis XTC cells (Xenopus laevis)"}, "[2]": {"molecular_target": "focal adhesion in fixed and permeabilized Xenopus laevis XTC cells (Xenopus laevis)"}, "[3]": {"molecular_target": "intermediate filament in fixed and permeabilized Xenopus laevis XTC cells (Xenopus laevis)"}}, "data": [{"substance": "APC fragment (amino acid residues 2536-2843 of sequence number 14), EGFP-3xFLAG fused at the C terminus", "values": [{"measurement": "half-life", "setting": "[1]", "result": 0.1, "unit": "s"}]}, {"substance": "APC fragment (amino acid residues 2781-2819 of sequence number 14), FLAG-EGFP fused at the N terminus", "values": [{"measurement": "half-life", "setting": "[1]", "result": 0.027, "unit": "s"}]}, {"substance": "CLIP-170 fragment (amino acid residues 3-309 of sequence number 12), FLAG-EGFP fused at the N terminus", "values": [{"measurement": "half-life", "setting": "[1]", "result": 0.044, "unit": "s"}]}, {"substance": "MAP4 fragment (amino acid residues 1-908 of sequence number 4), FLAG-EGFP fused at the N terminus", "values": [{"measurement": "half-life", "setting": "[1]", "result": 0.109, "unit": "s"}]}, {"substance": "MAP4 fragment (amino acid residues 659-908 of sequence number 4), FLAG-EGFP fused at the N terminus", "values": [{"measurement": "half-life", "setting": "[1]", "result": 0.106, "unit": "s"}]}, {"substance": "Paxillin fragment (amino acid residues 54-498 of sequence number 15), FLAG-EGFP fused at the N terminus", "values": [{"measurement": "half-life", "setting": "[2]", "result": 0.091, "unit": "s"}]}, {"substance": "Paxillin fragment (amino acid residues 54-557 of sequence number 15), FLAG-EGFP fused at the N terminus", "values": [{"measurement": "half-life", "setting": "[2]", "result": 0.246, "unit": "s"}]}, {"substance": "Paxillin fragment (amino acid residues 167-557 of sequence number 15), FLAG-EGFP fused at the N terminus", "values": [{"measurement": "half-life", "setting": "[2]", "result": 0.138, "unit": "s"}]}, {"substance": "Paxillin full length (FL) (full length of sequence number 15, residues 1-557), FLAG-EGFP fused at the N terminus", "values": [{"measurement": "half-life", "setting": "[2]", "result": 0.196, "unit": "s"}]}, {"substance": "Plectin-1 fragment (amino acid residues 3777-4313 of sequence number 8), FLAG-EGFP fused at the N terminus", "values": [{"measurement": "half-life", "setting": "[3]", "result": 0.052, "unit": "s"}]}, {"substance": "Plectin-1 fragment (amino acid residues 3777-4364 of sequence number 8), FLAG-EGFP fused at the N terminus", "values": [{"measurement": "half-life", "setting": "[3]", "result": 0.059, "unit": "s"}]}, {"substance": "Plectin-1 fragment (amino acid residues 3777-4684 of sequence number 8), FLAG-EGFP fused at the N terminus", "values": [{"measurement": "half-life", "setting": "[3]", "result": 0.457, "unit": "s"}]}, {"substance": "Plectin-1 fragment (amino acid residues 4022-4364 of sequence number 8), FLAG-EGFP fused at the N terminus", "values": [{"measurement": "half-life", "setting": "[3]", "result": 0.103, "unit": "s"}]}, {"substance": "Plectin-1 fragment (amino acid residues 4066-4364 of sequence number 8), FLAG-EGFP fused at the N terminus", "values": [{"measurement": "half-life", "setting": "[3]", "result": 7.7, "unit": "s"}]}, {"substance": "Tau isoform 3 (full length of sequence number 5, residues 1-383), FLAG-EGFP fused at the N terminus", "values": [{"measurement": "half-life", "setting": "[1]", "result": 0.11, "unit": "s"}]}, {"substance": "Tau isoform 4 (sequence number 6, residues 1-352), FLAG-EGFP fused at the N terminus", "values": [{"measurement": "half-life", "setting": "[1]", "result": 0.06, "unit": "s"}]}, {"substance": "phosphatidylinositol-(4)-phosphate 5-kinase type Iγ-90 (PIPKIγ) fragment (641-668) (sequence number 18), N terminus tagged with FLAG-EGFP", "values": [{"measurement": "half-life", "setting": "[2]", "result": 0.496, "unit": "s"}]}]}
